The target in one data set is T1, PqsA (PqsAFL) (Pseudomonas aeruginosa, UniProt Q9I4X3).
T1 construct: full length, expressed in E. coli T7 Express with 6x-His-CPD tag, tag cut
Kind of data set: anthraniloyl-CoA formation, absorbance at […] nm. It counts as biochemical. To be noted: assay with added ArqI.

Data set [1] has as its target T2, ArqI (PA0709), Aldehyde responsive quorum-sensing Inhibitor (Pseudomonas aeruginosa, UniProt Q9I5L9).
T2 construct: full length (98 residues), expressed in E. coli as His6-SUMO fusion, SUMO tag cut, N-terminal SGGG left; hexamer; numbering from Met1
The data set is described as follows: X-ray crystallography and mass spectrometry of Arg49 adduct. As to conditions: covalent; Arg49 in chains C, D, E; hemiaminal or carboxymethylarginine adduct (+58 amu). It counts as binding.

In data set [2] the target is T3, PqsA full-length protein, purified (Pseudomonas aeruginosa MPAO1, UniProt Q9I4X3 1-517).
T3 construct: also called PqsAFL; FL
T3 sequence: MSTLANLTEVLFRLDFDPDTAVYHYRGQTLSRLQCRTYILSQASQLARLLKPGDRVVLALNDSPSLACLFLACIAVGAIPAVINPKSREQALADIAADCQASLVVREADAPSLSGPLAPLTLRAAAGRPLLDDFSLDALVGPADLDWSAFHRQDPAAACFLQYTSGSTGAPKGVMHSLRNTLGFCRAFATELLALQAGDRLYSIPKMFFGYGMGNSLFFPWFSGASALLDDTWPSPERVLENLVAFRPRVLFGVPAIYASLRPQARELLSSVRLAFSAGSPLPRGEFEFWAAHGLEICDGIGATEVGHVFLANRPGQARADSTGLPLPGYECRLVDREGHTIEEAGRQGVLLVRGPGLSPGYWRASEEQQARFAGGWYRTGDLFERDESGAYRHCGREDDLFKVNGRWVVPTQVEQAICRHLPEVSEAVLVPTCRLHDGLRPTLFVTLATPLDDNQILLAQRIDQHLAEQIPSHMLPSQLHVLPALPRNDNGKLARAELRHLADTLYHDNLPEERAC
Kind of data set: other fluorescence titration. To be noted: both partners purified.

Data set [3] concerns the molecule itself. The data set is described as follows: crystal structure; native ArqI, crystals from 50 mM sodium acetate pH 5.0, 12% PEG 4000; C 222_1 cell, 6 subunits in the asymmetric unit, 2.0 Å.
Data set [4] deals with the molecule itself. The data set is described as follows: SEC; HiLoad Superdex 75 16/600 pg or Superose 6 Increase 10/300 GL; 2 mL at 10 mg/mL; 50 mM Tris-Cl pH 8.0, 150 mM NaCl, 1 mM βME (a buffer with 500 mM NaCl, pH 7.4, is also named); RT. A general note: Size exclusion chromatography separates by hydrodynamic size, large species first.
The data set “crystal structure” deals with the molecule itself. The data set is described as follows: crystal structure.

Where a chain is given by its changes, count along the chain named. Names may count otherwise. “And” between values parts separate entries of the source, which are not always exact repeats. Equal entries are not always repeated.

With `CC(C)(COP(=O)(O)OP(=O)(O)OC[C@H]1O[C@@H](n2cnc3c(N)ncnc32)[C@H](O)[C@@H]1OP(=O)(O)O)[C@@H](O)C(=O)NCCC(=O)NCCS` [CoA, coenzyme A], the “anthraniloyl-CoA formation, absorbance at 375 nm” value at PqsA (PqsAFL) (with anthranilate and ATP) is “purified PqsA protein with CoA, ATP, and anthranilate”.

With `O=CC=O` [GO, glyoxal], the “X-ray crystallography and mass spectrometry of Arg49 adduct” value in data set [1] is “A glyoxal modification was observed on Arg49 for three subunits (chains C, D and E)”.

For the molecule `Nc1ccccc1C(=O)O` [anthranilate], the “anthraniloyl-CoA formation, absorbance at 375 nm” value at PqsA (PqsAFL) (with CoA and ATP) is “purified PqsA protein with CoA, ATP, and anthranilate”.

B1: Aldehyde responsive quorum-sensing Inhibitor (ArqI), wild type, purified (natural protein)
chain: SGGGMTYHVLVQFDVPSDKREAFAAAGLFDANGSLQNEPGTLRFEVIRDENNRNRFYLDEVYEDEAAFLQHCRNETIARFYELIDSYAFGPLFLFKGYRVEG
notes: also called PA0709; WT ArqI
On to B1, for which the Kd (usually a measure of binding affinity in units of concentration) in data set [2] turned out to be 43 µM. Besides, the stoichiometry N (usually the number of molecules, sites or subunits per partner or assembly) in data set [3] came to 6.

B2: ArqI R49Q variant, purified (natural protein)
chain: B1 chain with R53Q
notes: source: E. coli, purified as the wild type
For the molecule B2, in data set [4], the “stoichiometry N” value is 6 and 2.

B3: ArqI P87G variant, purified (natural protein)
chain: B1 chain with P91G
notes: as for B2
Take B3: the “stoichiometry N” value in data set [4] turned out to be 2.

B4: ArqI R16A variant, purified (natural protein)
chain: B1 chain with R20A
modifications: in the crystal: βME-modified Cys68
notes: source: E. coli, purified as the wild type (Ni-NTA, ULP1 cleavage, SEC)
Regarding B4, the “stoichiometry N” value in the data set “crystal structure” was 6; in data set [4], 2.
